Data on one substance can be found in patent US20120270768.

As for prostate specific antigen (PSA), the “Kcat against Mu-HSSKLQ-AMC” value in the data set with Ac-GKSQYQ-AMC, in the data set on Ac-GSSKYQ-AMC and in the data set on Ac-GsAKYQ-AMC was “˜10-fold improvement in the Kcat kinetic parameter” throughout. Moreover, the Kcat/Km amounted to 278 s^-1M^-1 in the data set on Ac-GKSQYQ-AMC; 86 s^-1M^-1 in the data set on Ac-GSSKFQ-AMC; 227 s^-1M^-1 with Ac-GSSKYQ-AMC; 218 s^-1M^-1 in the data set with Ac-GsAKYQ-AMC; 23.6 s^-1M^-1 with Mu-HSSKLQ-AMC. For the same substance, the “Kcat/Km ratio against Mu-HSSKLQ-AMC” value with Ac-GKSQYQ-AMC, in the data set with Ac-GSSKYQ-AMC and in the data set with Ac-GsAKYQ-AMC was “Kcat/Km ratios that were 10-fold higher than the Mu-HSSKLQ-AMC test peptide” in each case. In addition, the Km (usually the substrate concentration at which the rate is half of its maximum) in the data set on Ac-GKSQYQ-AMC amounted to 343 µM; with Ac-GSSKFQ-AMC it was 666 µM; in the data set with Ac-GSSKYQ-AMC, 500 µM; in the data set with Ac-GsAKYQ-AMC, 653 µM; with Mu-HSSKLQ-AMC, 470 µM. The kcat (as a rule, the maximal rate divided by the concentration of active sites) stood at 0.09 s⁻¹ in the data set on Ac-GKSQYQ-AMC; 0.057 s⁻¹ with Ac-GSSKFQ-AMC; 0.113 s⁻¹ in the data set with Ac-GSSKYQ-AMC; 0.143 s⁻¹ in the data set on Ac-GsAKYQ-AMC; 0.011 s⁻¹ in the data set on Mu-HSSKLQ-AMC. Further, the “PSA hydrolysis (release of L12ADT, LC/MS)” value in the data set with Mu-HSSKLQ//L12ADT and with Mu-SSKYQ//L12ADT was “the new prodrug was hydrolyzed dramatically better than the test peptide” each time.
